# Columns and labels:
# [1] = biological target: T1, Core_NNNN-es_KKEE; test: two-hybrid library CCmax; conditions: mean of both orientations;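 note: natural log of median RNA to DNA barcode read ratio; higher means stronger binding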
# T1 chain: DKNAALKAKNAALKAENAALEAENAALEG
# [2] = biological target: T2, Core_IINN-es_KKKE; test: two-hybrid library CCmax; conditions: mean of both orientations;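 note: natural log of median RNA to DNA barcode read ratio; higher means stronger binding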
# T2 chain: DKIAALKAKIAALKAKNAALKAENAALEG
# [3] = biological target: T3, P4SC1; test: two-hybrid library CCNG1;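 note: natural log of median RNA to DNA barcode read ratio; higher means stronger binding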
# T3 chain: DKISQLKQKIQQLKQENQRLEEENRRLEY
# [4] = biological target: T3, P4SC1; test: two-hybrid library CCmax; conditions: mean of both orientations;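 note: natural log of median RNA to DNA barcode read ratio; higher means stronger binding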
# [5] = biological target: T4, 4H3066-AA; test: two-hybrid library CCmax; conditions: mean of both orientations;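 note: natural log of median RNA to DNA barcode read ratio; higher means stronger binding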
# T4 chain: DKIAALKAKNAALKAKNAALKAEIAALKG
# [6] = biological target: T5, 4H1391-AA; test: two-hybrid library CCmax; conditions: mean of both orientations;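 note: natural log of median RNA to DNA barcode read ratio; higher means stronger binding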
# T5 chain: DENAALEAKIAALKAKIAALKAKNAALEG
# [7] = biological target: T6, 4H675-AA; test: two-hybrid library CCmax; conditions: mean of both orientations
# T6 chain: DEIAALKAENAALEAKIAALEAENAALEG
# [8] = biological target: T7, 4H3709-AA; test: two-hybrid library CCmax; conditions: mean of both orientations
# T7 chain: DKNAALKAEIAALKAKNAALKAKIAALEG
# [9] = biological target: T8, 4H1348-AA; test: two-hybrid library CCmax; conditions: mean of both orientations
# T8 chain: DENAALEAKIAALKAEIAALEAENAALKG
# [10] = biological target: T9, 4H189-AA; test: two-hybrid library CCmax; conditions: mean of both orientations
# T9 chain: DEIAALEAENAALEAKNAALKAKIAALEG
# [11] = biological target: T10, 4H3446-AA; test: two-hybrid library CCmax; conditions: mean of both orientations
# T10 chain: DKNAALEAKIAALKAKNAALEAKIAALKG
# [12] = biological target: T11, 4H1064-AA; test: two-hybrid library CCmax; conditions: mean of both orientations
# T11 chain: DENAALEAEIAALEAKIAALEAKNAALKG
# [13] = biological target: T12, 4H1809-AA; test: two-hybrid library CCmax; conditions: mean of both orientations
# T12 chain: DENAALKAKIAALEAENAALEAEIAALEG
# [14] = biological target: T13, 4H391-AA; test: two-hybrid library CCmax; conditions: mean of both orientations
# T13 chain: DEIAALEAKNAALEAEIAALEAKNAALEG
# [15] = biological target: T14, 4H3939-AA; test: two-hybrid library CCmax; conditions: mean of both orientations
# T14 chain: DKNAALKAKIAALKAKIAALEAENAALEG
# [16] = biological target: T15, 4H428-AA; test: two-hybrid library CCmax; conditions: mean of both orientations
# T15 chain: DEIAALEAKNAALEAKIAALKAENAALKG
# [17] = biological target: T16, 4H656-AA; test: two-hybrid library CCmax
# T16 chain: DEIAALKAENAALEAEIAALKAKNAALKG
# [18] = biological target: T17, 4H3417-AA; test: two-hybrid library CCmax; conditions: mean of both orientations
# T17 chain: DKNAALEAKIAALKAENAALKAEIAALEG
# [19] = biological target: T18, 4H1854-AA; test: two-hybrid library CCmax; conditions: mean of both orientations
# T18 chain: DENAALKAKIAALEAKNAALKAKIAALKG
# [20] = biological target: T19, 4H497-AA; test: two-hybrid library CCmax; conditions: mean of both orientations
# T19 chain: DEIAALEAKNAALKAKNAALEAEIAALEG
# [21] = biological target: T20, 4H2713-AA; test: two-hybrid library CCmax; conditions: mean of both orientations
# T20 chain: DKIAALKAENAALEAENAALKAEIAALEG
# [22] = biological target: T21, 4H3121-AA; test: two-hybrid library CCmax; conditions: mean of both orientations
# T21 chain: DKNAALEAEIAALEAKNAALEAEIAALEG
# [23] = biological target: T22, 4H3029-AA; test: two-hybrid library CCmax; conditions: mean of both orientations
# T22 chain: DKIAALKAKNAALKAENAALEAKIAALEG
# [24] = biological target: T23, 4H2580-AA; test: two-hybrid library CCmax
# T23 chain: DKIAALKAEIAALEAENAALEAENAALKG
# [25] = biological target: T24, 4H2742-AA; test: two-hybrid library CCmax; conditions: mean of both orientations
# T24 chain: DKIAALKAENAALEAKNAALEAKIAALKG
# [26] = biological target: T25, 4H2991-AA; test: two-hybrid library CCmax; conditions: mean of both orientations
# T25 chain: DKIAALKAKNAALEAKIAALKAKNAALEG
# [27] = biological target: T26, 4H1000-AA; test: two-hybrid library CCmax
# T26 chain: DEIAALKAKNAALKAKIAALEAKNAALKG
# [28] = biological target: T27, 4H3920-AA; test: two-hybrid library CCmax; conditions: mean of both orientations
# T27 chain: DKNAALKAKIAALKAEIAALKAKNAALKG
# [29] = biological target: T28, 4H478-AA; test: two-hybrid library CCmax; conditions: mean of both orientations
# T28 chain: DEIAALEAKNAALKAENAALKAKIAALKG
# [30] = biological target: T29, 4H1146-AA; test: two-hybrid library CCmax; conditions: mean of both orientations
# T29 chain: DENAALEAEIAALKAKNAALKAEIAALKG
# [31] = biological target: T30, 4H971-AA; test: two-hybrid library CCmax; conditions: mean of both orientations
# T30 chain: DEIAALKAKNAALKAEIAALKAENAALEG
# [32] = biological target: T31, 4H3102-AA; test: two-hybrid library CCmax; conditions: mean of both orientations
# T31 chain: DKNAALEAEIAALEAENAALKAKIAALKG
# [33] = biological target: T32, 4H2948-AA; test: two-hybrid library CCmax; conditions: mean of both orientations
# T32 chain: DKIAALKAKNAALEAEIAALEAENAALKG
# [34] = biological target: T33, 4H2283-AA; test: two-hybrid library CCmax; conditions: mean of both orientations
# T33 chain: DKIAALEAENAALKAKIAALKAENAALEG
# [35] = biological target: T34, 4H1109-AA; test: two-hybrid library CCmax; conditions: mean of both orientations
# T34 chain: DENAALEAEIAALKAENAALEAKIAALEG
# [36] = biological target: T35, 4H3591-AA; test: two-hybrid library CCmax; conditions: mean of both orientations
# T35 chain: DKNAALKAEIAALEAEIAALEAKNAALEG
# [37] = biological target: T36, 4H3628-AA; test: two-hybrid library CCmax; conditions: mean of both orientations
# T36 chain: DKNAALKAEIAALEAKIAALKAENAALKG
# [38] = biological target: T37, 4H3666-AA; test: two-hybrid library CCmax; conditions: mean of both orientations
# T37 chain: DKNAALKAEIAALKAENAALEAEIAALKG
# [39] = biological target: T38, 4H146-AA; test: two-hybrid library CCmax; conditions: mean of both orientations
# T38 chain: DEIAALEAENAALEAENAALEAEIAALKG
# [40] = biological target: T39, 4H1035-AA; test: two-hybrid library CCmax; conditions: mean of both orientations
# T39 chain: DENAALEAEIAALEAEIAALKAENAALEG
# [41] = biological target: T40, 4H2248-AA; test: two-hybrid library CCmax
# T40 chain: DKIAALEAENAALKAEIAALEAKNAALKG
binder,measurement,setting,value
DENAALEAENAALEAKNAALKAKNAALKG [Core_NNNN-es_EEKK],interaction score,[1],0.234
DEIAALEAEIAALEAENAALEAKNAALKG [Core_IINN-es_EEEK],interaction score,[2],2.03
DEIQQLEEEISQLEYKNYALKAKNEELKR [P3SC1],interaction score,[3],2.22
same,interaction score,[4],1.43
DEIAALKAKNAALKAKIAALEAKNAALKG [4H1000-AA],interaction score,[5],-1.96
same,interaction score,[6],-1.56
same,interaction score,[7],2.34
same,interaction score,[8],-1.07
same,interaction score,[9],-1.24
same,interaction score,[10],-0.933
same,interaction score,[11],-1.24
same,interaction score,[12],-0.567
same,interaction score,[13],0.471
same,interaction score,[14],0.223
same,interaction score,[15],-1.65
same,interaction score,[16],-0.137
same,interaction score,[17],0.604
same,interaction score,[18],-0.644
same,interaction score,[19],-1.79
same,interaction score,[20],-1.74
same,interaction score,[21],-1.49
same,interaction score,[22],-0.524
same,interaction score,[23],-0.99
same,interaction score,[24],-1.04
same,interaction score,[25],-1.09
same,interaction score,[26],-1.19
same,interaction score,[27],-0.42
same,interaction score,[28],-1.89
same,interaction score,[29],-2.48
same,interaction score,[30],-1.52
same,interaction score,[31],-0.95
same,interaction score,[32],-0.226
same,interaction score,[33],0.224
same,interaction score,[34],0.468
same,interaction score,[35],1.3
same,interaction score,[36],-0.703
same,interaction score,[37],-1.21
same,interaction score,[38],0.777
same,interaction score,[39],-0.33
same,interaction score,[40],-1.26
same,interaction score,[41],-1.32

# From PMC10397247
